Results published in patent publication US20190077860A1 (EISAI R AND D MANAGEMENT, published 2019).

Assays:
[1] = target: T1, human EphA4 extracellular region-SEAP-His protein (human, UniProt P54764 20-547); test: SPR, Ab captured
T1 construct: also called hEphA4-SEAP-His
Method: The binding affinity of each anti-EphA4 monoclonal humanized antibody obtained in Example 16 for human EphA4 was determined by surface plasmon resonance (SPR) using Biacore T200 (GE Healthcare). First, for the assay of antibody A, a rat anti-mouse IgG₁ antibody produced with a conventional method by immunizing rat with mouse IgG₁ antibody was immobilized on sensor chip CM5. The immobilization of the rat anti-mouse IgG1 antibody on sensor chip CM5 was performed by the amine coupling method using N-hydroxysuccinimide (NHS) and N-ethyl-N′-(3-dimethylaminopropyl)carbodiimide hydrochloride (EDC). Ethanolamine was used in blocking (the sensor chip and the reagents for immobilization were all manufactured by GE Healthcare). The antibody was diluted with a buffer solution for immobilization (10 mM sodium acetate, pH 4.5) and immobilized on the sensor chip according to the protocol attached to Biacore T200. For the assay of each humanized monoclonal antibody, a protein A chip (GE Healthcare, 29-1383-03) was used. Antibody A or the humanized monoclonal antibody was diluted with a running buffer solution HBS-EP (GE Healthcare), injected onto only flow cell 2 for 120 seconds, and captured (captured amount: approximately 30 to 60 RU). Subsequently, human EphA4 extracellular region-SEAP-His protein serially diluted in the range of 50, 16.7, 5.6, 1.9, and 0.6 nM using HBS-EP was sequentially added from the lower toward higher concentration sides without regeneration operation. Binding reaction curves were sequentially observed at the time of the addition (association phase, for 120 sec) and after the completion of the addition (dissociation phase, for 900 sec). After the completion of each observation, the sensor chip was regenerated by the addition of 3 M MgCl₂ (for 60 sec) or 10 mM Glycine-HCl pH 1.5 (for 30 sec). The obtained binding reaction curves were subjected to fitting analysis with 1:1 binding models using software BIA evaluation attached to the system to calculate the affinity (KD=kd/ka) for human EphA4 (Table 6).

[2] = target: T1, human EphA4 extracellular …; test: competition ELISA, competitor human Ephrin A5-Fc
Method: Each anti-EphA4 monoclonal humanized antibody obtained in Example 16 was evaluated for its inhibitory activity against the binding between human EphA4 and its human ligand according to the following steps. Each well of a 96-well plate (Nunc) was coated with an anti-alkaline phosphatase antibody (Thermo Fisher Scientific). After incubation overnight at 4° C., each well was blocked with 1% BlockAce (DS Pharma Biomedical) at room temperature for 1 hour. After washing with 0.05% Tween 20/PBS (Thermo Fisher Scientific) three times, the human EphA4 extracellular region-SEAP-His protein obtained by the method of Example 2 was added (final concentration: 10 nM) to each well and incubated at room temperature for 1 hour. After washing three times, a ligand and each serially diluted humanized antibody of antibody A (0, 0.003, 0.01, 0.03, 0.1, 0.3, 1, 3, 10, 30, 100, 300, 1000, and 3000 nM) were added to each well. The ligand used was biotinylated human Ephrin A5-Fc chimera (R&D Systems, final concentration: 0.7 nM). After incubation at room temperature for 1 hour and subsequent washing three times, horseradish peroxidase-labeled streptavidin (GE Healthcare) was added thereto and incubated at room temperature for 1 hour. After washing three times, a TMBZ (3,3′,5,5′-tetramethylbenzidine, Sigma-Aldrich) solution was added to each well and incubated at room temperature for 2 minutes. An equal amount of a reaction stopping solution (1N H₂SO₄, Wako Pure Chemical Industries) was added to each well. The absorbance at 450 nm was read using a microplate reader (PerkinElmer).

T1 sequence (P54764 20-547): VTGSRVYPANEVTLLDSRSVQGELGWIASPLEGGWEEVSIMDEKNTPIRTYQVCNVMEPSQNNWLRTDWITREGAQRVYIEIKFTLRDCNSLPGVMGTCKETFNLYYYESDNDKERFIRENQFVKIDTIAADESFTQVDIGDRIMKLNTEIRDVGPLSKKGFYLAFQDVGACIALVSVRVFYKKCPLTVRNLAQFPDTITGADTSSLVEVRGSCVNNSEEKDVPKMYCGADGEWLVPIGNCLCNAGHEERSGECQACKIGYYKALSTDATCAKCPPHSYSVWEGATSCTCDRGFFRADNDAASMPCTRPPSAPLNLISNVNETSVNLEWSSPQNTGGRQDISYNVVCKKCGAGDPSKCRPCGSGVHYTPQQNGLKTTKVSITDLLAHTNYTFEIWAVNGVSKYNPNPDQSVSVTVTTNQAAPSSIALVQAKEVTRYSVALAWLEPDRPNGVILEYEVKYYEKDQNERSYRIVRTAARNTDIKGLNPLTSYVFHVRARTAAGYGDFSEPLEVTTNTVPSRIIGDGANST

Binder | Kd [1] [nM] | koff [1] [s⁻¹] | kon [1] [M⁻¹ s⁻¹] | IC50 [2] [nM]
humanized antibody No. 76 (antibody, human IgG1, kappa, human Ig kappa; also called L1-4/HA2) heavy: QVQLVQSGSELKKPGASVKVSCKASGYTFTDYSMHWVRQAPGQGLKWMGWINTETGEPTYAQGFTGRFVFSLDTSVSTAYLQISSLKAEDTAVYYCARIPLYYYGSRYWYFDVWGQGTTVTVSSASTKGPSVFPLAPSSKSTSGGTAALGCLVKDYFPEPVTVSWNSGALTSGVHTFPAVLQSSGLYSLSSVVTVPSSSLGTQTYICNVNHKPSNTKVDKRVEPKSCDKTHTCPPCPAPPAAAPSVFLFPPKPKDTLMISRTPEVTCVVVDVSHEDPEVQFNWYVDGVEVHNAKTKPREEQFNSTFRVVSVLTVVHQDWLNGKEYKCKVSNKGLPAPIEKTISKTKGQPREPQVYTLPPSREEMTKNQVSLTCLVKGFYPSDIAVEWESNGQPENNYKTTPPMLDSDGSFFLYSKLTVDKSRWQQGNVFSCSVMHEALHNHYTQKSLSLSPG light: DIQMTQSPSSLSASVGDRVTITCRASENIYRNLAWYQQKPGKAPKLLVYAATNLADGVPSRFSGSGSGTDYTLTISSLQPEDFATYYCQHFWGTPWTFGQGTKVEIKRTVAAPSVFIFPPSDEQLKSGTASVVCLLNNFYPREAKVQWKVDNALQSGNSQESVTEQDSKDSTYSLSSTLTLSKADYEKHKVYACEVTHQGLSSPVTKSFNRGEC | 1 | 0.00034 | 330000 | 2.9
humanized antibody No. 67 (antibody, human IgG1, kappa, human Ig kappa; also called L1-4/HA4) heavy: QIQLVQSGSELKKPGASVKVSCKASGYTFTDYSMHWVRQAPGQGLKWMGWINTETGEPTYAQGFTGRFVFSLDTSVSTAYLQISSLKAEDTAVYYCARIPLYYYGSRYWYFDVWGQGTTVTVSSASTKGPSVFPLAPSSKSTSGGTAALGCLVKDYFPEPVTVSWNSGALTSGVHTFPAVLQSSGLYSLSSVVTVPSSSLGTQTYICNVNHKPSNTKVDKRVEPKSCDKTHTCPPCPAPPAAAPSVFLFPPKPKDTLMISRTPEVTCVVVDVSHEDPEVQFNWYVDGVEVHNAKTKPREEQFNSTFRVVSVLTVVHQDWLNGKEYKCKVSNKGLPAPIEKTISKTKGQPREPQVYTLPPSREEMTKNQVSLTCLVKGFYPSDIAVEWESNGQPENNYKTTPPMLDSDGSFFLYSKLTVDKSRWQQGNVFSCSVMHEALHNHYTQKSLSLSPG light: DIQMTQSPSSLSASVGDRVTITCRASENIYRNLAWYQQKPGKAPKLLVYAATNLADGVPSRFSGSGSGTDYTLTISSLQPEDFATYYCQHFWGTPWTFGQGTKVEIKRTVAAPSVFIFPPSDEQLKSGTASVVCLLNNFYPREAKVQWKVDNALQSGNSQESVTEQDSKDSTYSLSSTLTLSKADYEKHKVYACEVTHQGLSSPVTKSFNRGEC | 1.1 | 0.00035 | 330000 | 4.4
humanized antibody No. 69 (antibody, human IgG1, kappa, human Ig kappa; also called L1-4/HK4) heavy: QIQLVQSGSELKKPGASVKVSCKASGYTFTDYSMHWVRQAPGQGLKWMGWINTETGEPTYADDFKGRFVFSLDTSVSTAYLQISSLKAEDTAVYYCARIPLYYYGSRYWYFDVWGQGTTVTVSSASTKGPSVFPLAPSSKSTSGGTAALGCLVKDYFPEPVTVSWNSGALTSGVHTFPAVLQSSGLYSLSSVVTVPSSSLGTQTYICNVNHKPSNTKVDKRVEPKSCDKTHTCPPCPAPPAAAPSVFLFPPKPKDTLMISRTPEVTCVVVDVSHEDPEVQFNWYVDGVEVHNAKTKPREEQFNSTFRVVSVLTVVHQDWLNGKEYKCKVSNKGLPAPIEKTISKTKGQPREPQVYTLPPSREEMTKNQVSLTCLVKGFYPSDIAVEWESNGQPENNYKTTPPMLDSDGSFFLYSKLTVDKSRWQQGNVFSCSVMHEALHNHYTQKSLSLSPG light: DIQMTQSPSSLSASVGDRVTITCRASENIYRNLAWYQQKPGKAPKLLVYAATNLADGVPSRFSGSGSGTDYTLTISSLQPEDFATYYCQHFWGTPWTFGQGTKVEIKRTVAAPSVFIFPPSDEQLKSGTASVVCLLNNFYPREAKVQWKVDNALQSGNSQESVTEQDSKDSTYSLSSTLTLSKADYEKHKVYACEVTHQGLSSPVTKSFNRGEC | 1.1 | 0.00037 | 340000 | 3.1
humanized antibody No. 75 (antibody, human IgG1, kappa, constant region: human IgG1 CH1 and hinge, human IgG2 CH2 and CH3 with V234A, G237A, no C-terminal Lys; human Ig kappa; also called L1-4/HA1) heavy: QVQLVQSGSELKKPGASVKVSCKASGYTFTDYSMHWVRQAPGQGLEWMGWINTETGEPTYAQGFTGRFVFSLDTSVSTAYLQISSLKAEDTAVYYCARIPLYYYGSRYWYFDVWGQGTTVTVSSASTKGPSVFPLAPSSKSTSGGTAALGCLVKDYFPEPVTVSWNSGALTSGVHTFPAVLQSSGLYSLSSVVTVPSSSLGTQTYICNVNHKPSNTKVDKRVEPKSCDKTHTCPPCPAPPAAAPSVFLFPPKPKDTLMISRTPEVTCVVVDVSHEDPEVQFNWYVDGVEVHNAKTKPREEQFNSTFRVVSVLTVVHQDWLNGKEYKCKVSNKGLPAPIEKTISKTKGQPREPQVYTLPPSREEMTKNQVSLTCLVKGFYPSDIAVEWESNGQPENNYKTTPPMLDSDGSFFLYSKLTVDKSRWQQGNVFSCSVMHEALHNHYTQKSLSLSPG light: DIQMTQSPSSLSASVGDRVTITCRASENIYRNLAWYQQKPGKAPKLLVYAATNLADGVPSRFSGSGSGTDYTLTISSLQPEDFATYYCQHFWGTPWTFGQGTKVEIKRTVAAPSVFIFPPSDEQLKSGTASVVCLLNNFYPREAKVQWKVDNALQSGNSQESVTEQDSKDSTYSLSSTLTLSKADYEKHKVYACEVTHQGLSSPVTKSFNRGEC | 1.2 | 0.00042 | 380000 | 2.9
humanized antibody No. 77 (antibody, human IgG1, kappa, human Ig kappa; also called L1-4/HK1) heavy: QVQLVQSGSELKKPGASVKVSCKASGYTFTDYSMHWVRQAPGQGLEWMGWINTETGEPTYADDFKGRFVFSLDTSVSTAYLQISSLKAEDTAVYYCARIPLYYYGSRYWYFDVWGQGTTVTVSSASTKGPSVFPLAPSSKSTSGGTAALGCLVKDYFPEPVTVSWNSGALTSGVHTFPAVLQSSGLYSLSSVVTVPSSSLGTQTYICNVNHKPSNTKVDKRVEPKSCDKTHTCPPCPAPPAAAPSVFLFPPKPKDTLMISRTPEVTCVVVDVSHEDPEVQFNWYVDGVEVHNAKTKPREEQFNSTFRVVSVLTVVHQDWLNGKEYKCKVSNKGLPAPIEKTISKTKGQPREPQVYTLPPSREEMTKNQVSLTCLVKGFYPSDIAVEWESNGQPENNYKTTPPMLDSDGSFFLYSKLTVDKSRWQQGNVFSCSVMHEALHNHYTQKSLSLSPG light: DIQMTQSPSSLSASVGDRVTITCRASENIYRNLAWYQQKPGKAPKLLVYAATNLADGVPSRFSGSGSGTDYTLTISSLQPEDFATYYCQHFWGTPWTFGQGTKVEIKRTVAAPSVFIFPPSDEQLKSGTASVVCLLNNFYPREAKVQWKVDNALQSGNSQESVTEQDSKDSTYSLSSTLTLSKADYEKHKVYACEVTHQGLSSPVTKSFNRGEC | 1.4 | 0.00058 | 410000 | 3.5
humanized antibody No. 78 (antibody, human IgG1, kappa, human Ig kappa; also called L1-4/HK2) heavy: QVQLVQSGSELKKPGASVKVSCKASGYTFTDYSMHWVRQAPGQGLKWMGWINTETGEPTYADDFKGRFVFSLDTSVSTAYLQISSLKAEDTAVYYCARIPLYYYGSRYWYFDVWGQGTTVTVSSASTKGPSVFPLAPSSKSTSGGTAALGCLVKDYFPEPVTVSWNSGALTSGVHTFPAVLQSSGLYSLSSVVTVPSSSLGTQTYICNVNHKPSNTKVDKRVEPKSCDKTHTCPPCPAPPAAAPSVFLFPPKPKDTLMISRTPEVTCVVVDVSHEDPEVQFNWYVDGVEVHNAKTKPREEQFNSTFRVVSVLTVVHQDWLNGKEYKCKVSNKGLPAPIEKTISKTKGQPREPQVYTLPPSREEMTKNQVSLTCLVKGFYPSDIAVEWESNGQPENNYKTTPPMLDSDGSFFLYSKLTVDKSRWQQGNVFSCSVMHEALHNHYTQKSLSLSPG light: DIQMTQSPSSLSASVGDRVTITCRASENIYRNLAWYQQKPGKAPKLLVYAATNLADGVPSRFSGSGSGTDYTLTISSLQPEDFATYYCQHFWGTPWTFGQGTKVEIKRTVAAPSVFIFPPSDEQLKSGTASVVCLLNNFYPREAKVQWKVDNALQSGNSQESVTEQDSKDSTYSLSSTLTLSKADYEKHKVYACEVTHQGLSSPVTKSFNRGEC | 1.1 | 0.00039 | 340000 | 2.8
